pKd: −log10 of the molar value.

In the data set the test system is T1, CHD1.ZnF3-8 (CHD1 zinc fingers 3 through 8) (Homo sapiens).
T1 sequence: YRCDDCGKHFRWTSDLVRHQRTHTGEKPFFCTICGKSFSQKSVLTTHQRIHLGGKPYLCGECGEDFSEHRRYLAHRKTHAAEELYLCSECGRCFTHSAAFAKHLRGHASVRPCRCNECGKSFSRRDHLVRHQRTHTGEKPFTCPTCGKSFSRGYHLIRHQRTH
Description: EMSA. The settings on record: apparent, upper limit from protein dilution; poly d(I:C) does not compete. (Mobility shift assays separate free from complexed probe on a gel.)

Consider ApoAIV promoter fragment -573 to -165, for which the negative-log Kd (pKd) was 8.00.

As usually defined, the pKd is the Kd on a negative log10 scale, so that one unit is a factor of ten.

Values taken from patent publication US6225451.
